Data taken from patent US20180155450A1 (Sanofi, published 2018).

T1: recombinant human IL4 (human, UniProt P05112 25-153)
T1 construct: bought; also called Antigen1
T1 sequence (looked up): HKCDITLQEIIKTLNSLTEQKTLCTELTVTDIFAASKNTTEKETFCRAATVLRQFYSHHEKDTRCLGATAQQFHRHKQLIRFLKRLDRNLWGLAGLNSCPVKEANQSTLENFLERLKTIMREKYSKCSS


How the values were obtained:
[1] = molecular target: T1, recombinant human IL4; test: SPR (Biacore 3000), captured CODV-Ig, antigen as analyte;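 note: kd derived from kinetic fits in BIAevaluation 4.1, with signals referenced against a flow cell lacking captured antibody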
Description: (§1) Kinetic binding analysis by Biacore was performed as follows. Surface plasmon resonance technology on a Biacore 3000 (GE Healthcare) was used for detailed kinetic characterization of purified antibodies. […] Chip surfaces were regenerated with 10 mM glycine pH 2.5. Kinetic parameters were analyzed and calculated in the BIAevaluation program package v4.1 using a flow cell without captured antibody as a reference.

[2] = molecular target: T2, recombinant human IL13 (human, UniProt P35225 35-146, limits assumed); test: as above
T2 construct: bought; also called Antigen2
T2 sequence (P35225 35-146 limits assumed): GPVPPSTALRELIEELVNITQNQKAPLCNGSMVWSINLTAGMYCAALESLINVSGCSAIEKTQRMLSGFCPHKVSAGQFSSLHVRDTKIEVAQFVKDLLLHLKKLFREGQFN
Description: as §1

Row | Binder | Kd [1] | Kd [2]
1 | CODV-Ig Batch ID 213 (IL4 × IL13 on HC; L1=5, L2=3, L3=2, L4=2) (bispecific antibody) chain 1: not shown chain 2: DIVLTQSPASLAVSLGQRATISCRASESVDSYGQSYMHWYQQKAGQPPKLLIYLASNLESGVPARFSGSGSRTDFTLTIDPVQAEDAATYYCQQNAEDSRTFGGGTKLEIKGGGGGDIQMTQSPASLSVSVGDTITLTCHASQNIDVWLSWFQQKPGNIPKLLIYKASNLHTGVPSRFSGSGSGTGFTLTISSLQPEDIATYYCQQAHSYPFTFGGGTKLEIKGGGRTVAAPSVFIFPPSDEQLKSGTASVVCLLNNFYPREAKVQWKVDNALQSGNSQESVTEQDSKDSTYSLSSTLTLSKADYEKHKVYACEVTHQGLSSPVTKSFNRGEC | 0.005 nM | 0.027 nM
2 | CODV-Ig Batch ID 208 (IL4 × IL13 on HC; L1=5, L2=5, L3=2, L4=0) (bispecific antibody, IgG1 CODV-Ig, heavy chain as template; L4 = 0 (no linker)) heavy: not shown light: DIVLTQSPASLAVSLGQRATISCRASESVDSYGQSYMHWYQQKAGQPPKLLIYLASNLESGVPARFSGSGSRTDFTLTIDPVQAEDAATYYCQQNAEDSRTFGGGTKLEIKGGGGGDIQMTQSPASLSVSVGDTITLTCHASQNIDVWLSWFQQKPGNIPKLLIYKASNLHTGVPSRFSGSGSGTGFTLTISSLQPEDIATYYCQQAHSYPFTFGGGTKLEIKGGGGGRTVAAPSVFIFPPSDEQLKSGTASVVCLLNNFYPREAKVQWKVDNALQSGNSQESVTEQDSKDSTYSLSSTLTLSKADYEKHKVYACEVTHQGLSSPVTKSFNRGEC | 0.01 nM | 
3 | CODV-Ig Batch ID 214 (IL4 × IL13 on HC; L1=5, L2=5, L3=2, L4=2) (bispecific antibody) chain 1: not shown chain 2: DIVLTQSPASLAVSLGQRATISCRASESVDSYGQSYMHWYQQKAGQPPKLLIYLASNLESGVPARFSGSGSRTDFTLTIDPVQAEDAATYYCQQNAEDSRTFGGGTKLEIKGGGGGDIQMTQSPASLSVSVGDTITLTCHASQNIDVWLSWFQQKPGNIPKLLIYKASNLHTGVPSRFSGSGSGTGFTLTISSLQPEDIATYYCQQAHSYPFTFGGGTKLEIKGGGGGRTVAAPSVFIFPPSDEQLKSGTASVVCLLNNFYPREAKVQWKVDNALQSGNSQESVTEQDSKDSTYSLSSTLTLSKADYEKHKVYACEVTHQGLSSPVTKSFNRGEC | 0.01 nM | 0.053 nM
4 | CODV-Ig Batch ID 232 (IL4 × IL13 on HC; L1=5, L2=5, L3=5, L4=0) (bispecific antibody, IgG1 CODV-Ig, heavy chain as template; L4 = 0 (no linker)) heavy: not shown light: DIVLTQSPASLAVSLGQRATISCRASESVDSYGQSYMHWYQQKAGQPPKLLIYLASNLESGVPARFSGSGSRTDFTLTIDPVQAEDAATYYCQQNAEDSRTFGGGTKLEIKGGGGGDIQMTQSPASLSVSVGDTITLTCHASQNIDVWLSWFQQKPGNIPKLLIYKASNLHTGVPSRFSGSGSGTGFTLTISSLQPEDIATYYCQQAHSYPFTFGGGTKLEIKGGGGGRTVAAPSVFIFPPSDEQLKSGTASVVCLLNNFYPREAKVQWKVDNALQSGNSQESVTEQDSKDSTYSLSSTLTLSKADYEKHKVYACEVTHQGLSSPVTKSFNRGEC | 0.008 nM | 
5 | CODV-Ig Batch ID 209 (IL4 × IL13 on HC; L1=7, L2=3, L3=2, L4=0) (bispecific antibody) chain 1: not shown chain 2: DIVLTQSPASLAVSLGQRATISCRASESVDSYGQSYMHWYQQKAGQPPKLLIYLASNLESGVPARFSGSGSRTDFTLTIDPVQAEDAATYYCQQNAEDSRTFGGGTKLEIKGGGGGGGDIQMTQSPASLSVSVGDTITLTCHASQNIDVWLSWFQQKPGNIPKLLIYKASNLHTGVPSRFSGSGSGTGFTLTISSLQPEDIATYYCQQAHSYPFTFGGGTKLEIKGGGRTVAAPSVFIFPPSDEQLKSGTASVVCLLNNFYPREAKVQWKVDNALQSGNSQESVTEQDSKDSTYSLSSTLTLSKADYEKHKVYACEVTHQGLSSPVTKSFNRGEC | 0.005 nM | 0.047 nM
6 | CODV-Ig Batch ID 215 (IL4 × IL13 on HC; L1=7, L2=3, L3=2, L4=2) (bispecific antibody) chain 1: not shown chain 2: DIVLTQSPASLAVSLGQRATISCRASESVDSYGQSYMHWYQQKAGQPPKLLIYLASNLESGVPARFSGSGSRTDFTLTIDPVQAEDAATYYCQQNAEDSRTFGGGTKLEIKGGGGGGGDIQMTQSPASLSVSVGDTITLTCHASQNIDVWLSWFQQKPGNIPKLLIYKASNLHTGVPSRFSGSGSGTGFTLTISSLQPEDIATYYCQQAHSYPFTFGGGTKLEIKGGGRTVAAPSVFIFPPSDEQLKSGTASVVCLLNNFYPREAKVQWKVDNALQSGNSQESVTEQDSKDSTYSLSSTLTLSKADYEKHKVYACEVTHQGLSSPVTKSFNRGEC | 0.004 nM | 0.05 nM
7 | CODV-Ig Batch ID 210 (IL4 × IL13 on HC; L1=7, L2=5, L3=2, L4=0) (bispecific antibody, IgG1 CODV-Ig, heavy chain as template; L4 = 0 (no linker)) heavy: not shown light: DIVLTQSPASLAVSLGQRATISCRASESVDSYGQSYMHWYQQKAGQPPKLLIYLASNLESGVPARFSGSGSRTDFTLTIDPVQAEDAATYYCQQNAEDSRTFGGGTKLEIKGGGGGGGDIQMTQSPASLSVSVGDTITLTCHASQNIDVWLSWFQQKPGNIPKLLIYKASNLHTGVPSRFSGSGSGTGFTLTISSLQPEDIATYYCQQAHSYPFTFGGGTKLEIKGGGGGRTVAAPSVFIFPPSDEQLKSGTASVVCLLNNFYPREAKVQWKVDNALQSGNSQESVTEQDSKDSTYSLSSTLTLSKADYEKHKVYACEVTHQGLSSPVTKSFNRGEC | 0.004 nM | 
8 | CODV-Ig Batch ID 216 (IL4 × IL13 on HC; L1=7, L2=5, L3=2, L4=2) (bispecific antibody) chain 1: not shown chain 2: DIVLTQSPASLAVSLGQRATISCRASESVDSYGQSYMHWYQQKAGQPPKLLIYLASNLESGVPARFSGSGSRTDFTLTIDPVQAEDAATYYCQQNAEDSRTFGGGTKLEIKGGGGGGGDIQMTQSPASLSVSVGDTITLTCHASQNIDVWLSWFQQKPGNIPKLLIYKASNLHTGVPSRFSGSGSGTGFTLTISSLQPEDIATYYCQQAHSYPFTFGGGTKLEIKGGGGGRTVAAPSVFIFPPSDEQLKSGTASVVCLLNNFYPREAKVQWKVDNALQSGNSQESVTEQDSKDSTYSLSSTLTLSKADYEKHKVYACEVTHQGLSSPVTKSFNRGEC | 0.011 nM | 0.04 nM
9 | CODV-Ig Batch ID 234 (IL4 × IL13 on HC; L1=7, L2=5, L3=5, L4=0) (bispecific antibody, IgG1 CODV-Ig, heavy chain as template; L4 = 0 (no linker)) heavy: not shown light: DIVLTQSPASLAVSLGQRATISCRASESVDSYGQSYMHWYQQKAGQPPKLLIYLASNLESGVPARFSGSGSRTDFTLTIDPVQAEDAATYYCQQNAEDSRTFGGGTKLEIKGGGGGGGDIQMTQSPASLSVSVGDTITLTCHASQNIDVWLSWFQQKPGNIPKLLIYKASNLHTGVPSRFSGSGSGTGFTLTISSLQPEDIATYYCQQAHSYPFTFGGGTKLEIKGGGGGRTVAAPSVFIFPPSDEQLKSGTASVVCLLNNFYPREAKVQWKVDNALQSGNSQESVTEQDSKDSTYSLSSTLTLSKADYEKHKVYACEVTHQGLSSPVTKSFNRGEC | 0.003 nM | 

The remaining binders from weak to strong by Kd [1], led by results:

Row | Kd [1] | Kd [2] | Binder
10 | 0.008 nM | 0.071 nM | CODV-Ig Batch ID 219 (IL4 × IL13 on HC; L1=3, L2=6, L3=3, L4=0) (bispecific antibody) chain 1: not shown chain 2: DIVLTQSPASLAVSLGQRATISCRASESVDSYGQSYMHWYQQKAGQPPKLLIYLASNLESGVPARFSGSGSRTDFTLTIDPVQAEDAATYYCQQNAEDSRTFGGGTKLEIKGGGDIQMTQSPASLSVSVGDTITLTCHASQNIDVWLSWFQQKPGNIPKLLIYKASNLHTGVPSRFSGSGSGTGFTLTISSLQPEDIATYYCQQAHSYPFTFGGGTKLEIKGGGGGGRTVAAPSVFIFPPSDEQLKSGTASVVCLLNNFYPREAKVQWKVDNALQSGNSQESVTEQDSKDSTYSLSSTLTLSKADYEKHKVYACEVTHQGLSSPVTKSFNRGEC
11 | 0.007 nM | 0.053 nM | CODV-Ig Batch ID 222 (IL4 × IL13 on HC; L1=6, L2=6, L3=3, L4=0) (bispecific antibody) chain 1: not shown chain 2: DIVLTQSPASLAVSLGQRATISCRASESVDSYGQSYMHWYQQKAGQPPKLLIYLASNLESGVPARFSGSGSRTDFTLTIDPVQAEDAATYYCQQNAEDSRTFGGGTKLEIKGGGGGGDIQMTQSPASLSVSVGDTITLTCHASQNIDVWLSWFQQKPGNIPKLLIYKASNLHTGVPSRFSGSGSGTGFTLTISSLQPEDIATYYCQQAHSYPFTFGGGTKLEIKGGGGGGRTVAAPSVFIFPPSDEQLKSGTASVVCLLNNFYPREAKVQWKVDNALQSGNSQESVTEQDSKDSTYSLSSTLTLSKADYEKHKVYACEVTHQGLSSPVTKSFNRGEC
12 | 0.007 nM | 0.044 nM | CODV-Ig Batch ID 228 (IL4 × IL13 on HC; L1=6, L2=6, L3=3, L4=2) (bispecific antibody) chain 1: not shown chain 2: DIVLTQSPASLAVSLGQRATISCRASESVDSYGQSYMHWYQQKAGQPPKLLIYLASNLESGVPARFSGSGSRTDFTLTIDPVQAEDAATYYCQQNAEDSRTFGGGTKLEIKGGGGGGDIQMTQSPASLSVSVGDTITLTCHASQNIDVWLSWFQQKPGNIPKLLIYKASNLHTGVPSRFSGSGSGTGFTLTISSLQPEDIATYYCQQAHSYPFTFGGGTKLEIKGGGGGGRTVAAPSVFIFPPSDEQLKSGTASVVCLLNNFYPREAKVQWKVDNALQSGNSQESVTEQDSKDSTYSLSSTLTLSKADYEKHKVYACEVTHQGLSSPVTKSFNRGEC
13 | 0.006 nM | 0.068 nM | CODV-Ig Batch ID 225 (IL4 × IL13 on HC; L1=3, L2=6, L3=3, L4=2) (bispecific antibody) chain 1: not shown chain 2: DIVLTQSPASLAVSLGQRATISCRASESVDSYGQSYMHWYQQKAGQPPKLLIYLASNLESGVPARFSGSGSRTDFTLTIDPVQAEDAATYYCQQNAEDSRTFGGGTKLEIKGGGDIQMTQSPASLSVSVGDTITLTCHASQNIDVWLSWFQQKPGNIPKLLIYKASNLHTGVPSRFSGSGSGTGFTLTISSLQPEDIATYYCQQAHSYPFTFGGGTKLEIKGGGGGGRTVAAPSVFIFPPSDEQLKSGTASVVCLLNNFYPREAKVQWKVDNALQSGNSQESVTEQDSKDSTYSLSSTLTLSKADYEKHKVYACEVTHQGLSSPVTKSFNRGEC
14 | 0.003 nM | 0.033 nM | CODV-Ig Batch ID 207 (IL4 × IL13 on HC; L1=5, L2=3, L3=2, L4=0) (bispecific antibody) chain 1: not shown chain 2: DIVLTQSPASLAVSLGQRATISCRASESVDSYGQSYMHWYQQKAGQPPKLLIYLASNLESGVPARFSGSGSRTDFTLTIDPVQAEDAATYYCQQNAEDSRTFGGGTKLEIKGGGGGDIQMTQSPASLSVSVGDTITLTCHASQNIDVWLSWFQQKPGNIPKLLIYKASNLHTGVPSRFSGSGSGTGFTLTISSLQPEDIATYYCQQAHSYPFTFGGGTKLEIKGGGRTVAAPSVFIFPPSDEQLKSGTASVVCLLNNFYPREAKVQWKVDNALQSGNSQESVTEQDSKDSTYSLSSTLTLSKADYEKHKVYACEVTHQGLSSPVTKSFNRGEC
15 | 0.003 nM |  | CODV-Ig Batch ID 204 (IL4 × IL13 on HC; L1=7, L2=5, L3=1, L4=2) (bispecific antibody, IgG1, IgG1 CODV-Ig, heavy chain as template) heavy: not shown light: DIVLTQSPASLAVSLGQRATISCRASESVDSYGQSYMHWYQQKAGQPPKLLIYLASNLESGVPARFSGSGSRTDFTLTIDPVQAEDAATYYCQQNAEDSRTFGGGTKLEIKGGGGGGGDIQMTQSPASLSVSVGDTITLTCHASQNIDVWLSWFQQKPGNIPKLLIYKASNLHTGVPSRFSGSGSGTGFTLTISSLQPEDIATYYCQQAHSYPFTFGGGTKLEIKGGGGGRTVAAPSVFIFPPSDEQLKSGTASVVCLLNNFYPREAKVQWKVDNALQSGNSQESVTEQDSKDSTYSLSSTLTLSKADYEKHKVYACEVTHQGLSSPVTKSFNRGEC
